This note sets out measurements from US20150099282A1, “NADP-DEPENDENT ALANINE DEHYDROGENASE” (EVONIK INDUSTRIES AG, priority 2012, published 2015).

Holding throughout (assay type): biochemical, Bacillus subtilis
Substrate in data set [1]: NC(=O)C1=CN([C@@H]2O[C@H](COP(=O)(O)OP(=O)(O)OC[C@H]3O[C@@H](n4cnc5c(N)ncnc54)[C@H](O)[C@@H]3O)[C@@H](O)[C@H]2O)C=CC1
Briefly: KM and kcat for NADH/NADPH, reductive amination of pyruvate, wild type BasAlaDH. The conditions noted are these: other: reductive amination of pyruvate, 5 mM pyruvate, 200 mM ammonium acetate, 10-500 μM NADH, 0.5 μM enzyme, Hepes/NaOH pH 8.3, 30.0 °C. From the text:
(§1) The gene of the Bacillus subtilis AlaDH (SEQ ID No. 4) was amplified from the plasmid pUC18-AlaDH by polymerase chain reaction (PCR) using the oligodeoxy nucleotides AlaDHfw (SEQ ID No. 11) and AlaDHrv (SEQ ID No. 12), cleaved at the 3′ end using the restriction enzyme KpnI and ligated with the expression vector pASK-IBA35(+) (IBA GmbH, Göttingen) which had been cleaved with the restriction enzymes EheI and KpnI. The resulting expression plasmid pASK-IBA35(+)-AlaDH on which the BasAlaDH with an N-terminal His6-tag is encoded was verified by means of analytical restriction digestion and DNA sequencing. The plasmid which codes for the enzyme variant D196A/L197R was generated by site-directed mutagenesis using the oligodeoxy nucleotides AlaDH_D196A/L197Rfw (SEQ ID No. 13) and AlaDH_D196A/L197Rrv (SEQ ID No. 14), using the QuikChange method. The resulting expression plasmid pASK-IBA35(+)-AlaDH(D196A/L197R) was verified by means of DNA sequencing.
(§2) The expression plasmids for the BasAlaDH and its variant D196A/L197R were subsequently used for transforming E. coli BL21 (Sambrook et al. (2001) Molecular cloning: a laboratory manual, 3rd edition. Cold Spring Harbor Laboratory Press). Gene expression was induced in each case in LB medium (Sambrook et al. 2001) supplemented with 100 μg/ml ampicillin (2 L culture volume in a 5-l shake flask) at 30° C. in the exponential growth phase at OD550=0.5 by addition of 0.2 μg/ml anhydrotetracyclin (aTc; Acros, Geel, Belgium). After an induction time of 3 hours, the culture was harvested, and the cells were taken up in 40 mM Hepes/NaOH pH 7.5, 0.5 M NaCl and disrupted mechanically in a French press homogenizer (G. Heinemann, Schwäbisch Gmünd). The clear supernatant was applied to a Chelating Sepharose™ Fast Flow column loaded with Zn^2+ (bed volume 2.8 ml; GE Healthcare, Munich), and the enzymes with His6-tag fusion were eluted using a linear imidazole/HCl concentration gradient of from 0 to 500 mM in 40 mM Hepes/NaOH pH 7.5, 0.5 M NaCl. The elution fractions were concentrated by ultrafiltration and purified chromatographically by means of gel filtration on Superdex200 (GE Healthcare) in the presence of 25 mM Hepes/NaOH pH 8.3.
(§3) The Michaelis constant (KM) and the turnover number (kcat) of the two purified enzymes for the cosubstrates NADH and NADPH were determined with the aid of reductive amination of pyruvate, and the catalytic efficiency (kcat/KM) was calculated (Table 1).

Substrate in data set [2]: NC(=O)C1=CN([C@@H]2O[C@H](COP(=O)(O)OP(=O)(O)OC[C@H]3O[C@@H](n4cnc5c(N)ncnc54)[C@H](OP(=O)(O)O)[C@@H]3O)[C@@H](O)[C@H]2O)C=CC1
Described as above. The conditions noted are these: other: reductive amination of pyruvate, 5 mM pyruvate, 200 mM ammonium acetate, 10-500 μM NADPH, 0.5 μM enzyme, Hepes/NaOH pH 8.3, 30.0 °C.
From the text: as §1, §2, §3

Substrate in data set [3]: NC(=O)C1=CN([C@@H]2O[C@H](COP(=O)(O)OP(=O)(O)OC[C@H]3O[C@@H](n4cnc5c(N)ncnc54)[C@H](O)[C@@H]3O)[C@@H](O)[C@H]2O)C=CC1
Briefly: KM and kcat for NADH/NADPH, reductive amination of pyruvate, BasAlaDH mutant D196A/L197R. Conditions: other: reductive amination of pyruvate, 5 mM pyruvate, 200 mM ammonium acetate, 10-500 μM NADH, 0.5 μM enzyme, Hepes/NaOH pH 8.3, 30.0 °C.
From the text: (§4) The conserved aspartate residue was the starting point for constructing the BasAlaDH enzyme variants D196A/L197R, with the SheAlaDH structure being used as template. […] As a result of the substitution L197R, the new cosubstrate specificity is favoured further as the result of the formation of salt bridges between the introduced arginine residue and the NADPH phosphate group.
as §1, §2, §3

Substrate in data set [4]: NC(=O)C1=CN([C@@H]2O[C@H](COP(=O)(O)OP(=O)(O)OC[C@H]3O[C@@H](n4cnc5c(N)ncnc54)[C@H](OP(=O)(O)O)[C@@H]3O)[C@@H](O)[C@H]2O)C=CC1
The data set is described as above. Conditions: other: reductive amination of pyruvate, 5 mM pyruvate, 200 mM ammonium acetate, 10-500 μM NADPH, 0.5 μM enzyme, Hepes/NaOH pH 8.3, 30.0 °C.
From the text: as §4, §1, §2, §3

B1: Bacillus subtilis alanine dehydrogenase (BasAlaDH), wild type (N-terminal His6-tag) (Bacillus subtilis subsp. subtilis str. 168) (protein)
chain: MIIGVPKEIKNNENRVALTPGGVSQLISNGHRVLVETGAGLGSGFENEAYESAGAEIIADPKQVWDAEMVMKVKEPLPEEYVYFRKGLVLFTYLHLAAEPELAQALKDKGVTAIAYETVSEGRTLPLLTPMSEVAGRMAAQIGAQFLEKPKGGKGILLAGVPGVSRGKVTIIGGGVVGTNAAKMAVGLGADVTIIDLNADRLRQLDDIFGHQIKTLISNPVNIADAVAEADLLICAVLIPGAKAPTLVTEEMVKQMKPGSVIVDVAIDQGGIVETVDHITTHDQPTYEKHGVVHYAVANMPGAVPRTSTIALTNVTVPYALQIANKGAVKALADNTALRAGLNTANGHVTYEAVARDLGYEYVPAEKALQDESSVAGA
As a reminder, the Km is the substrate concentration at which the rate is half of its maximum. Usually kcat stands for the maximal rate divided by the concentration of active sites. As for B1, in data set [1], the Km turned out to be 14 ± 2 µM, the kcat worked out at 14 ± 0.35 s⁻¹ and the kcat/Km is listed as 59.9 μM^−1/min^−1. Moreover, in data set [2], the Km was 448 ± 135 µM, the kcat was found to be 11.1 ± 1.9 s⁻¹ and the kcat/Km was determined as 1.5 μM^−1/min^−1.

B2: Bacillus subtilis alanine dehydrogenase (BasAlaDH) variant D196A/L197R (Asp196Ala, Leu197Arg), SEQ ID No. 1 (with His-Tag: SEQ ID No. 22) (Bacillus subtilis … (protein)
chain: MASRGSHHHHHHGAIIGVPKEIKNNENRVALTPGGVSQLISNGHRVLVETGAGLGSGFENEAYESAGAEIIADPKQVWDAEMVMKVKEPLPEEYVYFRKGLVLFTYLHLAAEPELAQALKDKGVTAIAYETVSEGRTLPLLTPMSEVAGRMAAQIGAQFLEKPKGGKGILLAGVPGVSRGKVTIIGGGVVGTNAAKMAVGLGADVTIIARNADRLRQLDDIFGHQIKTLISNPVNIADAVAEADLLICAVLIPGAKAPTLVTEEMVKQMKPGSVIVDVAIDQGGIVETVDHITTHDQPTYEKHGVVHYAVANMPGAVPRTSTIALTNVTVPYALQIANKGAVKALADNTALRAGLNTANGHVTYEAVARDLGYEYVPAEKALQDESSVAGA
B2: in data set [3], the Km was determined as 887 ± 360 µM, the kcat turned out to be 44.48 ± 12 s⁻¹ and the kcat/Km was determined as 3.0 μM^−1/min^−1. Also, in data set [4], the Km is 32 ± 3 µM, the turnover number (kcat) worked out at 28.83 ± 0.65 s⁻¹ and the kcat/Km was found to be 54.1 μM^−1/min^−1.
